# Results taken from paper PMC4488448.
# Target: HER-2 (human (endogenous in SKBR3 and T47D)) (UniProt P04626)
row,Substance,IC50 of killing of HER-2-overexpressing SKBR3 cells (luminescent cell viability assay; Fig 4A) [µg/mL]
1,eSrtA-conjugated cFRP5-DM1 (antibody),0.067
2,eSrtA-conjugated cFRP5-maytansine (antibody),0.0779
